T1: recombinant human C1r2s2 tetramer (human, UniProt P09871 16-688; P00736 18-705)
T1 construct: C1s and C1r co-expressed in HEK293/FreeStyle 293-F and purified from conditioned medium
T1 chain 1: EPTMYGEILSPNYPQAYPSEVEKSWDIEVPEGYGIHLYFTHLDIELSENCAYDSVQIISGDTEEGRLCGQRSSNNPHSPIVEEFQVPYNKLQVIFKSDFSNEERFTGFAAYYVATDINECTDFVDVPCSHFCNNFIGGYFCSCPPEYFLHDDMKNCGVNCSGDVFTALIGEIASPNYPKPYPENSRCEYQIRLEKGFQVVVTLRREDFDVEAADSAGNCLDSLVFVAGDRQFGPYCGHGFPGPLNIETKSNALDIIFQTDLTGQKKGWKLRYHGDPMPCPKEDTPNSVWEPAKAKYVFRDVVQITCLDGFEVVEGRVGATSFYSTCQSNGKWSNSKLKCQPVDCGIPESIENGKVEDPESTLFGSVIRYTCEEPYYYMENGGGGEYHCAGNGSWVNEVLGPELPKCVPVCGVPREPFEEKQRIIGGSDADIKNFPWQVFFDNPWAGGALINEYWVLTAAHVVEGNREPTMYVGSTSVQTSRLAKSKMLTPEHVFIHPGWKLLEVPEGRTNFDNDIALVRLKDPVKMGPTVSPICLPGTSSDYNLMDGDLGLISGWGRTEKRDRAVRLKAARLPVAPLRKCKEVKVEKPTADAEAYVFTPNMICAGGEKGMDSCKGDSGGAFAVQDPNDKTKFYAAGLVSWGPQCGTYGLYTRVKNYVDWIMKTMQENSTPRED
T1 chain 2: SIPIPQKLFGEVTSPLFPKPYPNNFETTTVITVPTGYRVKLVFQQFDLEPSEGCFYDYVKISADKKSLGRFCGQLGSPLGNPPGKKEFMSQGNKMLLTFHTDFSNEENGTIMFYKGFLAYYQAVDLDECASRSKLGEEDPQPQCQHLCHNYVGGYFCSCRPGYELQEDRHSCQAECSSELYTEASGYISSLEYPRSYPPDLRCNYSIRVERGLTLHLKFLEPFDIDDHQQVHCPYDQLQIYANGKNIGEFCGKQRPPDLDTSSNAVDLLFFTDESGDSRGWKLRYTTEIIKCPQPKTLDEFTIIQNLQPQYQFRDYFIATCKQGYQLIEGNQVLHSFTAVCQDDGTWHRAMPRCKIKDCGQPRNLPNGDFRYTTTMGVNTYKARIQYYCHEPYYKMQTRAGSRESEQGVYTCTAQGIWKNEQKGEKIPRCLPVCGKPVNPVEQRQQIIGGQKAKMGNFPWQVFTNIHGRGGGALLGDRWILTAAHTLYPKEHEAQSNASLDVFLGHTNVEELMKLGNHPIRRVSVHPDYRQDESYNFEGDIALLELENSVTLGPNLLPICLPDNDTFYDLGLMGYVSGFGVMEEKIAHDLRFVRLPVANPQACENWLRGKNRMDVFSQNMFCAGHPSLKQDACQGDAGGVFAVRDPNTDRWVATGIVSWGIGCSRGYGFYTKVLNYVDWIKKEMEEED


Molecular target: T1, recombinant human C1r2s2 tetramer
Assay: SPR (BIACORE), antibody captured by ProL, human C1r2s2 injected at 100 nM, pH 7.4, 37 C
Description: Analysis of interaction between antibody variants and the human C1r2s2 prepared as mentioned above was carried out at pH7.4, at 37 degrees C. using BIACORE® T200 instrument (GE Healthcare) or BIACORE® 4000 (GE Healthcare). ProL (BioVision) was immobilized onto a CM4 sensorchip using amine coupling kit (GE Healthcare) according to the recommended settings by GE Healthcare. Antibodies and analytes were diluted into the respective running buffers, ACES pH7.4 (20 mM ACES (N-(2-Acetamido)-2-aminoethanesulfonic acid), 150 mM NaCl, 1.2 mM CaCl2, 1 mg/ml bovine serum albumin (BSA), 1 mg/ml CMD (CM-Dextran sodium salt), 0.05% Tween® 20 (polysorbate 20), 0.005 w/v % NaN3). Each antibody was captured onto the sensor surface by ProL. Antibody capture levels were aimed at 200 resonance units (RU). Then, recombinant human C1r2s2 was injected at concentrations of 25 and 100 nM followed by dissociation at pH7.4. The surface was regenerated using 10 mM Glycine-HCl, pH1.5.

Row | binding result | Binder
1 | no binding (tested: 100 nM) | AL0451 (antibody, human IgG1, kappa, V domains shown, COS0637temp with VL C94A (Kabat), already in the VL entry) VH: QVQLVESGGGVVQPGRSLRLSCAASGFTFSAYAMNWIRQPPGKGLEWIGLIYGSGSTFYASWAKGRVTISVDTSKNQFSLKLSSVTAADTAVYYCARGRSVNYNSDFHLWGQGTLVTVSS VL: DIQMTQSPSSLSASVGDRVTITCQASQSLHDKKNLAWYQQKPGQPPKLLIYGASTLESGVPSRFSGSGSGTDFTLTISSLQPEDFATYYCQGEFSASSADCNTFGQGTKVEIKR
2 | no binding (tested: 100 nM) | AL0457 (antibody, human IgG1, kappa, V domains shown, COS0637temp with VL C94I (Kabat), already in the VL entry) VH: QVQLVESGGGVVQPGRSLRLSCAASGFTFSAYAMNWIRQPPGKGLEWIGLIYGSGSTFYASWAKGRVTISVDTSKNQFSLKLSSVTAADTAVYYCARGRSVNYNSDFHLWGQGTLVTVSS VL: DIQMTQSPSSLSASVGDRVTITCQASQSLHDKKNLAWYQQKPGQPPKLLIYGASTLESGVPSRFSGSGSGTDFTLTISSLQPEDFATYYCQGEFSISSADCNTFGQGTKVEIKR
3 | no binding (tested: 100 nM) | AL0453 (antibody, human IgG1, kappa, V domains shown, COS0637temp with VL C94E (Kabat), already in the VL entry) VH: QVQLVESGGGVVQPGRSLRLSCAASGFTFSAYAMNWIRQPPGKGLEWIGLIYGSGSTFYASWAKGRVTISVDTSKNQFSLKLSSVTAADTAVYYCARGRSVNYNSDFHLWGQGTLVTVSS VL: DIQMTQSPSSLSASVGDRVTITCQASQSLHDKKNLAWYQQKPGQPPKLLIYGASTLESGVPSRFSGSGSGTDFTLTISSLQPEDFATYYCQGEFSESSADCNTFGQGTKVEIKR
4 | no binding (tested: 100 nM) | AL0455 (antibody, human IgG1, kappa, V domains shown, COS0637temp with VL C94G (Kabat), already in the VL entry) VH: QVQLVESGGGVVQPGRSLRLSCAASGFTFSAYAMNWIRQPPGKGLEWIGLIYGSGSTFYASWAKGRVTISVDTSKNQFSLKLSSVTAADTAVYYCARGRSVNYNSDFHLWGQGTLVTVSS VL: DIQMTQSPSSLSASVGDRVTITCQASQSLHDKKNLAWYQQKPGQPPKLLIYGASTLESGVPSRFSGSGSGTDFTLTISSLQPEDFATYYCQGEFSGSSADCNTFGQGTKVEIKR
5 | no binding (tested: 100 nM) | AL0458 (antibody, human IgG1, kappa, V domains shown, COS0637temp with VL C94K (Kabat), already in the VL entry) VH: QVQLVESGGGVVQPGRSLRLSCAASGFTFSAYAMNWIRQPPGKGLEWIGLIYGSGSTFYASWAKGRVTISVDTSKNQFSLKLSSVTAADTAVYYCARGRSVNYNSDFHLWGQGTLVTVSS VL: DIQMTQSPSSLSASVGDRVTITCQASQSLHDKKNLAWYQQKPGQPPKLLIYGASTLESGVPSRFSGSGSGTDFTLTISSLQPEDFATYYCQGEFSKSSADCNTFGQGTKVEIKR
6 | no binding (tested: 100 nM) | AL0452 (antibody, human IgG1, kappa, V domains shown, COS0637temp with VL C94D (Kabat), already in the VL entry) VH: QVQLVESGGGVVQPGRSLRLSCAASGFTFSAYAMNWIRQPPGKGLEWIGLIYGSGSTFYASWAKGRVTISVDTSKNQFSLKLSSVTAADTAVYYCARGRSVNYNSDFHLWGQGTLVTVSS VL: DIQMTQSPSSLSASVGDRVTITCQASQSLHDKKNLAWYQQKPGQPPKLLIYGASTLESGVPSRFSGSGSGTDFTLTISSLQPEDFATYYCQGEFSDSSADCNTFGQGTKVEIKR
7 | no binding (tested: 100 nM) | AL0456 (antibody, human IgG1, kappa, V domains shown, COS0637temp with VL C94H (Kabat), already in the VL entry) VH: QVQLVESGGGVVQPGRSLRLSCAASGFTFSAYAMNWIRQPPGKGLEWIGLIYGSGSTFYASWAKGRVTISVDTSKNQFSLKLSSVTAADTAVYYCARGRSVNYNSDFHLWGQGTLVTVSS VL: DIQMTQSPSSLSASVGDRVTITCQASQSLHDKKNLAWYQQKPGQPPKLLIYGASTLESGVPSRFSGSGSGTDFTLTISSLQPEDFATYYCQGEFSHSSADCNTFGQGTKVEIKR
8 | no binding (tested: 100 nM) | AL0454 (antibody, human IgG1, kappa, V domains shown, COS0637temp with VL C94F (Kabat), already in the VL entry) VH: QVQLVESGGGVVQPGRSLRLSCAASGFTFSAYAMNWIRQPPGKGLEWIGLIYGSGSTFYASWAKGRVTISVDTSKNQFSLKLSSVTAADTAVYYCARGRSVNYNSDFHLWGQGTLVTVSS VL: DIQMTQSPSSLSASVGDRVTITCQASQSLHDKKNLAWYQQKPGQPPKLLIYGASTLESGVPSRFSGSGSGTDFTLTISSLQPEDFATYYCQGEFSFSSADCNTFGQGTKVEIKR

From US20240092889A1 (Chugai, published 2024)
